For one molecule, tissue receptor occupancy results are on record in US20230279132A1, “TREATMENT OF B CELL MALIGNANCIES” (NOVARTIS AG, priority 2020, published 2023).

The target of this assay is B-cell activating factor receptor (BAFF-R) (human) (UniProt Q96RJ3). Put plainly: receptor occupancy in patients with CLL given VAY736 i.v. with ibrutinib (clinical study CVAY736Y2102); method not stated.

Where only a bound is given, the exact number is not on record here.

B1: ianalumab (antibody, human IgG1, kappa, V domains shown)
VH: QVQLQQSGPGLVKPSQTLSLTCAISGDSVSSNSAAWGWIRQSPGRGLEWLGRIYYRSKWYNSYAVSVKSRITINPDTSKNQFSLQLNSVTPEDTAVYYCARYDWVPKIGVFDSWGQGTLVTVSS
VL: DIVLTQSPATLSLSPGERATLSCRASQFISSSYLSWYQQKPGQAPRLLIYGSSSRATGVPARFSGSGSGTDFTLTISSLEPEDFAVYYCQQLYSSPMTFGQGTKVEIKR
Take B1: the tissue receptor occupancy is greater than 99%.
